Publication PMC3898841, “Identification of a Major Determinant for Serine-Threonine Kinase Phosphoacceptor Specificity” (Molecular Cell, 2014)
Blank lines part the entries; values can stand above or below the binder they belong to.

How the values were obtained:
[1] = target: MST4 V165F (human) (UniProt Q9P289)
[2] = target: WT MST4 (human) (UniProt Q9P289)
[3] = target: T1, WT PAK4 catalytic domain (human, UniProt O96013 286-591, phosphoserine at 474 (activation loop, as seen in the structures)); experiment: crystal structure; cocrystals of PAK4 with PAKtide-S(L), 1.7 M ammonium sulfate, 15% PEG400, 0.1 M Tris-HCl (pH 8.0); conditions: both partners purified
T1 construct: residues built in the models: 300-589 (4JDH, 4JDI) and 291-591 (2Q0N); The construct of PDB 2Q0N may have other limits than that of 4JDH/4JDI
T1 sequence (O96013 286-591): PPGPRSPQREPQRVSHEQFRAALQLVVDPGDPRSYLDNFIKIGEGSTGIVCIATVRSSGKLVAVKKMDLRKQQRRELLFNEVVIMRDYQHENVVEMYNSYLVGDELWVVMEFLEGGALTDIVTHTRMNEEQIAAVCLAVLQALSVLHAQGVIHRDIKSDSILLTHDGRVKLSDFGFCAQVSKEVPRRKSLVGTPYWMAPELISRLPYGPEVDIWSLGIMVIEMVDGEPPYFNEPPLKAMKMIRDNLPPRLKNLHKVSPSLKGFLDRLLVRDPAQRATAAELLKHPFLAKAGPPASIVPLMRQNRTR

[4] = target: T1, WT PAK4 catalytic domain
[5] = target: T2, PAK4 F461V catalytic domain (human, UniProt O96013 286-591, F461V, phosphoserine at 474 (activation loop, as seen in the structures))
T2 construct: residues built in the models: 300-589; also called F461V mutant PAK4
T2 sequence (O96013 286-591 F461V): as the sequence (O96013 286-591) above, with F176V counted along it

[6] = target: T2, PAK4 F461V catalytic domain; experiment: crystal structure; PAK4 F461V cocrystals with peptide, hanging drop vapor diffusion, 0.1 M Tris-HCl (pH 7.5), 1.5-2.0 M NaOAc at room temperature; conditions: both partners purified
[7] = target: T1, WT PAK4 catalytic domain; experiment: crystal structure; WT PAK4 crystals grown by hanging drop vapor diffusion against 0.1 M Tris-HCl (pH 7.5), 1.5-2.0 M NaOAc at room temperature and soaked with peptides; conditions: both partners purified

Chain of WT MST4 (human) (Q9P289 whole entry, the tested form may be a part): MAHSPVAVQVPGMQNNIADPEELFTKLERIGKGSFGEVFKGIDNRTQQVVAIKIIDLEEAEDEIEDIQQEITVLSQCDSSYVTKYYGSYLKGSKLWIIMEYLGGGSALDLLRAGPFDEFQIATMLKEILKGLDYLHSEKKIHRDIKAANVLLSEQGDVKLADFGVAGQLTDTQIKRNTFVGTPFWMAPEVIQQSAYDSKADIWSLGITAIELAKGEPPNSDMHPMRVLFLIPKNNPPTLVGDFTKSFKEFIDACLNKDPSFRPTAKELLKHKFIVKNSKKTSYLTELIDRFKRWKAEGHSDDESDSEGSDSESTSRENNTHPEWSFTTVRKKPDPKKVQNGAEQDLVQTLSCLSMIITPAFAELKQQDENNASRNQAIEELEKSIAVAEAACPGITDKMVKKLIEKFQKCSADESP
Chain of MST4 V165F (human) (Q9P289 whole entry V165F): as the sequence (Q9P289 whole entry, the tested form may be a part) above, with V165F counted along it

Binder: NKGYNSLRRKK [MST4 substrate peptide … (X = Ser)]
Km for phosphorylation of the peptide (radiolabel filter binding kinase assay) [1]: 360 µM | Km for phosphorylation of the peptide (radiolabel filter binding kinase assay) [2]: 21.7 µM

Binder: GGRRRRRSWYFGGGK [PAK4 substrate peptide … (X = Ser)]
Km for phosphorylation of the peptide (radiolabel filter binding kinase assay) [4]: 280 µM | Km for phosphorylation of the peptide (radiolabel filter binding kinase assay) [5]: 129 µM

Binder: NKGYNTLRRKK [MST4 substrate peptide … (X = Thr)]
Km for phosphorylation of the peptide (radiolabel filter binding kinase assay) [1]: 390 µM | Km for phosphorylation of the peptide (radiolabel filter binding kinase assay) [2]: 14 µM

Other lines, results leading:

binding result [3]: binds
B1: PAKtide-S(L) (peptide)
peptide: RRRRRSWYFDG
notes: longer consensus peptide substrate of PAK4, phosphoacceptor Ser (P0); also called longer version of the consensus peptide; source: synthetic peptide

binding result [6]: binds | binding result [7]: binds
B2: PAKtide-S (peptide)
peptide: RRRRSWY
notes: consensus peptide substrate of PAK4, phosphoacceptor Ser (P0); also called PAK4 consensus peptide substrate with Ser phosphoacceptor (short form used for crystals); source: synthetic peptide
